Data: US11819542B2, “Immunotherapeutic method for treating lung cancer by administering a polypeptide comprising an epitope of hZP3” (Pantarhei Bioscience B.V., priority 2017, dated 2023)

Experiments:
[1] = tested on: hZP3-positive B16-HLA-A2 melanoma tumor; assay: Therapeutic immunization of HLA-A2 transgenic mice with ZP3-expressing tumor: tumor size; type: in vivo; conditions: female HLA-A2 transgenic mice, ZP3 expressing tumors, 2 s.c. immunizations (prime D7-10, boost D14-17) plus GM-CSF/CpG, tumor size increased with PBS
Procedure: (§1) FIG. 5: Schedule for administration of hZP3-positive B16-HLA-A2 melanoma tumor cells and an hZP3 peptide-mixture (comprising peptides 4, 5, 6, 8 and 9 in Table 5), or rhZP3^1-383 protein to HLA-A2 transgenic mice. On Day 0 (D0), a tumor injection with 10^6 cells/mouse was given subcutaneously (s.c.). Thereafter, the prime injection was administered 7 to 10 days (D7-10) and a boost injection on Day 14 to Day 17 (D14-17). Tumor size was monitored after treatment. At Day 30 to 35, mice were sacrificed to determine hZP3 specific CD8^+ responses (ELISpot).
An in vivo pre-clinical efficacy study has been conducted to assess the immune response and the anti-tumor response after immunization with rhZP3 polypeptide (aa 1-383 with his-tag) and 5 different ZP3 epitopes. The hZP3 epitopes were selected based on CD8^+ T cell responses observed during previously performed immunogenicity experiments with rhZP3 polypeptide (aa 1-383) and with pools of peptides comprising hZP3 epitopes as indicated (see Table 5) combined with different adjuvants (data not shown). The peptides were synthesized by Pepscan (the Netherlands) at a purity >96%. […]
(§2) On Day 0 (DO), a tumor injection with 10^6 cells/mouse (s.c.) was given. […] Tumor size was monitored after treatment. […]

[2] = tested on: hZP3 specific CD8^+ responses; assay: ZP3 specific CD8+ T cell response after immunization (interferon-γ ELISpot); type: in vivo; conditions: HLA-A2 transgenic mice with ZP3 expressing tumors, after prime and boost immunization plus GM-CSF/CpG, Day 30 to 35
Procedure: as §1
FIG. 7: CD8^+ T cell responses as determined by interferon-γ (IFNg) ELISpot as measured against the peptides (all 5 or peptides 4, 5, 6, 8 or 9 individually) after immunization with the mixture of the 5 hZP3 peptides (peptide), or after immunization with the rhZP3^1-383 protein ZP3 (prot).
An in vivo pre-clinical efficacy study has been conducted to assess the immune response and the anti-tumor response after immunization with rhZP3 polypeptide (aa 1-383 with his-tag) and 5 different ZP3 epitopes. […]
as §2

[3] = listed as hZP3 polypeptide (aa 1-383)

B1: rhZP3 protein: rhZP3 polypeptide (aa 1-383 with his-tag), 100 μg s.c. plus GM-CSF/CpG as adjuvant (protein)
chain: QPLWLLQGGASHPETSVQPVLVECQEATLMVMVSKDLFGTGKLIRAADLTLGPEACEPLVSMDTEDVVRFEVGLHECGNSMQVTDDALVYSTFLLHDPRPVGNLSIVRTNRAEIPIECRYPRQGNVSSQAILPTWLPFRTTVFSEEKLTFSLRLMEENWNAEKRSPTFHLGDAAHLQAEIHTGSHVPLRLFVDHCVATPTPDQNASPYHTIVDFHGCLVDGLTDASSAFKVPRPGPDTLQFTVDVFHFANDSRNMIYITCHLKVTLAEQDPDELNKACSFSKPSNSWFPVEGSADICQCCNKGDCGTPSHSRRQPHVMSQWSRSASRN
B1 was tested, and the “Tumor size after treatment” value [1] was “no growth of the tumor was observed”, the “Tumor size after treatment” value [1, 3] was “no increase in tumor size was observed” and the “CD8^+ T cell response (IFNg ELISpot)” value ([2]; listed as ZP3 protein) was “a TCD8 response was observed”. For the same molecule, the “CD8^+ T cell response (IFNg ELISpot)” value [2, 3] was “induced CD8^+ T cells”.
